Source: publication PMC3493575, “Elongation Factor 1 alpha1 and Genes Associated with Usher Syndromes Are Downstream Targets of GBX2”

Key:
[1] = target: GBX2ΔHD (mouse, UniProt P48031 1-94); assay: EMSA; 940 pM probe, 720 nM GBX2; 2X binding buffer: 20 mM Tris-HCl pH 7.4, 50 mM KCl, 1 mM DTT, 10% glycerol, 200 ug/mL BSA, 2.2 ug/mL poly dI/dC; 30 min, 25 C; 6% native PAGE, Tris-glycine; details: protein: recombinant; tags: V5-6xHis (pET101/D-TOPO); label: 32P end label; blunt
[2] = target: GBX2 full-length (mouse, UniProt P48031 1-348); assay: EMSA; supershift with anti-GBX2; 940 pM probe, 720 nM GBX2; 2X binding buffer: 20 mM Tris-HCl pH 7.4, 50 mM KCl, 1 mM DTT, 10% glycerol, 200 ug/mL BSA, 2.2 ug/mL poly dI/dC; 30 min, 25 C; 6% native PAGE, Tris-glycine; details: protein: recombinant; tags: V5-6xHis (pET101/D-TOPO); label: 32P end label; blunt
Sequence of GBX2 full-length (P48031 whole entry): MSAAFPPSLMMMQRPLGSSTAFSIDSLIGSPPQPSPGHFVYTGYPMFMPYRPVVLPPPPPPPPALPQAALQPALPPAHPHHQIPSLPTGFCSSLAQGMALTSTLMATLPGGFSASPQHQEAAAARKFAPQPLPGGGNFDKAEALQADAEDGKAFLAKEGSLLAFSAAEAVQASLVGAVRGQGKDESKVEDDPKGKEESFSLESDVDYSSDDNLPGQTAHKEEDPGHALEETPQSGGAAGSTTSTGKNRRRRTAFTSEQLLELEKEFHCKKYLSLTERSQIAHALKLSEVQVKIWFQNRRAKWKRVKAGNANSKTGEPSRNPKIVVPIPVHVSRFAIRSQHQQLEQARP

Sequence of GBX2ΔHD (P48031 1-94, stated change not applied): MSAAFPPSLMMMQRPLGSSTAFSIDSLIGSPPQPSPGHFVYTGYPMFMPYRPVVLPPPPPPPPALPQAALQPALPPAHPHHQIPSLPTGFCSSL

B1: PCDH15 100-mer probe (dsDNA)
DNA 1: TTACAATTTCATTTGTACAGGTAAGTATATACTTTTCTTTCATTGTTTCTTTTTAATATTCCCATTAGTGGGAATTCAGGCTATCTGTCTCTTACCTATC
DNA 2: GATAGGTAAGAGACAGATAGCCTGAATTCCCACTAATGGGAATATTAAAAAGAAACAATGAAAGAAAAGTATATACTTACCTGTACAAATGAAATTGTAA
[1]
  binding result: no binding
[2]
  binding result: binds
